The target of test [1] is gHgL antigen protein of EB virus (EB virus (M81 strain)). Description: BLI (Octet), AMMO1 on protein A sensor, antigen (row label gHgL) in solution 3.125-200 nM, 1:1 fit. A general note: BLI is a label-free optical method that tracks binding on a fibre tip over time.
Test [2] concerns the target gHgL-I53-50A1 subunit (EB virus (M81 strain) for the gH and gL parts). Description: BLI (Octet), AMMO1 on protein A sensor, antigen (row label gHgL-I53-50A1) in solution 3.125-200 nM, 1:1 fit.
The target in test [3] is gHgL-I53-50 NP self-assembled nanoparticle (EB virus (M81 strain) for the gH and gL parts). The test is described as follows: BLI (Octet), AMMO1 on protein A sensor, antigen (row label gHgL-I53-50 NP) in solution 3.125-200 nM, 1:1 fit.

With neutralizing antibody AMMO1, the dissociation constant (Kd) in test [1] is 432 pM; in test [2] it was 242 pM; in test [3], 33.9 pM.

The term Kd denotes the concentration at which binding is half-saturated.
